Assay results reported in PMC10746542 (Nature chemical biology, 2023).

Tests used:
[1] = target: bi-paratopic VH27.2/VH31 inhibitor (tetravalent Fc); assay: flow cytometry on cells; MDA-MB-231 cells stained with a titration of binder, 1 hr at 4°C in PBS with 3% BSA; ProtA-647 secondary; EC50 from median fluorescence intensity, sigmoidal 4PL fit; settings: one partner purified
VH27.2-Fc Y102A = assay: BLI; biotinylated ENPP1-Fc antigen loaded on streptavidin biosensors, blocked with 5 uM biotin; binder in solution, 600 s association, 900 s dissociation; TBS, 0.02% TWEEN-20, 0.2% BSA, 200 uM zinc chloride, 2 mM calcium chloride, 75 mM sodium chloride; 1:1 monovalent binding model; settings: both partners purified
VH27/T75I/A89V-Fc = assay: as above; settings: both partners purified
VH27.2-Fc W104F = assay: as above; settings: both partners purified

Binder	binding result [1]	Kd (VH27.2-Fc Y102A) [µM]	Kd (VH27/T75I/A89V-Fc) [µM]	Kd (VH27.2-Fc W104F) [µM]
native ENPP1 on the cell membrane (natural protein, UniProt P22413 1-925, looked up) MERDGCAGGGSRGGEGGRAPREGPAGNGRDRGRSHAAEAPGDPQAAASLLAPMDVGEEPLEKAARARTAKDPNTYKVLSLVLSVCVLTTILGCIFGLKPSCAKEVKSCKGRCFERTFGNCRCDAACVELGNCCLDYQETCIEPEHIWTCNKFRCGEKRLTRSLCACSDDCKDKGDCCINYSSVCQGEKSWVEEPCESINEPQCPAGFETPPTLLFSLDGFRAEYLHTWGGLLPVISKLKKCGTYTKNMRPVYPTKTFPNHYSIVTGLYPESHGIIDNKMYDPKMNASFSLKSKEKFNPEWYKGEPIWVTAKYQGLKSGTFFWPGSDVEINGIFPDIYKMYNGSVPFEERILAVLQWLQLPKDERPHFYTLYLEEPDSSGHSYGPVSSEVIKALQRVDGMVGMLMDGLKELNLHRCLNLILISDHGMEQGSCKKYIYLNKYLGDVKNIKVIYGPAARLRPSDVPDKYYSFNYEGIARNLSCREPNQHFKPYLKHFLPKRLHFAKSDRIEPLTFYLDPQWQLALNPSERKYCGSGFHGSDNVFSNMQALFVGYGPGFKHGIEADTFENIEVYNLMCDLLNLTPAPNNGTHGSLNHLLKNPVYTPKHPKEVHPLVQCPFTRNPRDNLGCSCNPSILPIEDFQTQFNLTVAEEKIIKHETLPYGRPRVLQKENTICLLSQHQFMSGYSQDILMPLWTSYTVDRNDSFSTEDFSNCLYQDFRIPLSPVHKCSFYKNNTKVSYGFLSPPQLNKNSSGIYSEALLTTNIVPMYQSFQVIWRYFHDTLLRKYAEERNGVNVVSGPVFDFDYDGRCDSLENLRQKRRVIRNQEILIPTHFFIVLTSCKDTSQTPLHCENLDTLAFILPHRTDNSESCVHGKHDSSWVEELLMLHRARITDVEHITGLSFYQQRKEPVSDILKLKTHLPTFSQED	binds			
T256A ENPP1-Fc (human ENPP1 ectodomain, ΔSMB, T256A, C-terminal Fc fusion with AviTag, biotinylated) (Fc fusion, biotin on the AviTag) GEKSWVEEPCESINEPQCPAGFETPPTLLFSLDGFRAEYLHTWGGLLPVISKLKKCGTYTKNMRPVYPTKAFPNHYSIVTGLYPESHGIIDNKMYDPKMNASFSLKSKEKFNPEWYKGEPIWVTAKYQGLKSGTFFWPGSDVEINGIFPDIYKMYNGSVPFEERILAVLQWLQLPKDERPHFYTLYLEEPDSSGHSYGPVSSEVIKALQRVDGMVGMLMDGLKELNLHRCLNLILISDHGMEQGSCKKYIYLNKYLGDVKNIKVIYGPAARLRPSDVPDKYYSFNYEGIARNLSCREPNQHFKPYLKHFLPKRLHFAKSDRIEPLTFYLDPQWQLALNPSERKYCGSGFHGSDNVFSNMQALFVGYGPGFKHGIEADTFENIEVYNLMCDLLNLTPAPNNGTHGSLNHLLKNPVYTPKHPKEVHPLVQCPFTRNPRDNLGCSCNPSILPIEDFQTQFNLTVAEEKIIKHETLPYGRPRVLQKENTICLLSQHQFMSGYSQDILMPLWTSYTVDRNDSFSTEDFSNCLYQDFRIPLSPVHKCSFYKNNTKVSYGFLSPPQLNKNSSGIYSEALLTTNIVPMYQSFQVIWRYFHDTLLRKYAEERNGVNVVSGPVFDFDYDGRCDSLENLRQKRRVIRNQEILIPTHFFIVLTSCKDTSQTPLHCENLDTLAFILPHRTDNSESCVHGKHDSSWVEELLMLHRARITDVEHITGLSFYQQRKEPVSDILKLKTHLPTFSQED		0.111	0.0007	0.0142
